Data from the NTF2 design screens of Basanta et al. (2020).

assay: protease stability score; higher = more stable; yeast display proteolysis, trypsin and chymotrypsin;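 further: relative to predicted unfolded state with 0 unfolded-like and 1 meaning tenfold more protease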

Sequence	protease stability score
SEEEEMVKVALELLKHSLETGDERLMLRQIDPHAKFDVDGKEHHGRDVFREIEERVDVLHLDHVEIQHVHIQGNKLHIHLEMRSTFLFNGRTFHYRLHYEIIMFKFNGKWLITSLQLR	0.485
DEDHRDVERLFQFVEELLHTGDERVNEELADPNVRIDVNGVERHGREDMVTWLRTIEERYKNATFHTHHIRIQGNKLKVNGRIRQGDWSSDVDILYVKINGRWFIRELKVK	1.49
SSHEEYMIRLVLQIIRLYLTGDEETIRKMADPNTYMKITIGDKDIEAHGREDVIRVREEIRKQIRIHHVDVTSIKVIDGRLVIHGILDGEYDGKRDEVDVRIEIIIVNGKWTSEHARVH	1.05
DEVERHLKEIFKDLERALNTGDEDRFEHLMDPHARYDVNGVEFIGMRWFRKLVKEIRIRHVDMRLEDVRHVGDFVKMITRIHIEVDINGKNDERETRTILIMHKIDGRWEIKEVIFL	1.38
SEDEETLSEAIRLLLESLQTGDWRTFDKLIDPHARLVIDGKELHGRDLITTLLTHWRVEHFKIRHIEVQGEKVRIEGEVRGDIDGRKKDTHVRLTAEKINGRWLTQIVIIH	1.98
SELDEEAEEALRITFEMLITGDWEFLNHYVDPDAKLNIGDKEHHGRETVITFVKEISRKLGIKVIRFRHIEVQVFNGKVDIHIHGVVEWNGRREEFRIIIILHKIDGQWHIREMRVHIR	2.4
SDEEEEERRIAHELRHFWETGDEDAFRDMLDPHTRLQIDINGRHFHLHGREHIVRHLSEVWNKFGVKHLKFHDHHVVNGVTHMDGEENIGDKRRRVRIIIIVVNGRVRMVRIQIE	1.45
DEVEHLLELMFRLIIETIRTGDEKLLEHLVDPNAKSLIDGRDYHGREMARHWHNRVDHLNDVHINDRKVQGEKIELDVRVDGRVGDKRIDERVHIIAFKINGQWIIHKMEVR	0.991
SEEEHLSKLTKKHMLHLWETGNETILEELADPNARHRWLVNGKEVTAHGREEVTRLFRDILDELGVDHLKLHSETVIGEKIHFDMIMIIGEFESRVRLNLHIVNGRIKEIDLQEQ	0.445
SEDEHRAEQLLRLWRETYTTGDERVMKELFDPNVRFDFNGREFIGREEAIRAFHEEVRHLGVDHVEIKEVEYRVINGQVHVHIESHFEVDGRRHRVHIESIVRKVNGKWRVEEVRIEIR	0.969
DEDQEIAEHVAELILELLLTGDEEKFLTLLDPNVRIIVGDKELHGREDWMRLFRHMRVRHVELRKIEVQGEKVHVDSRLDVEFNGRRRNINANWIVLKVNGRWTIRSVELE	2.17
SEKEKILEHFSELWYRLFRTGDEDTLHRMFDPDYRLIYGDKESHGRRLVWIMIAELRIHDWRLRRYHVQGDKAHFDVEVTGEFNGRREHNREEIIITVIDGRATEVEIRID	0.54
DEHEESAEWHSELMIRSMETGDEDLFEHLLDPRARFHINGQDIHGRDSISHFLSRRLKDMGFKHSSLKTVTIEVQGEWVYLRIKVILIVDGRHLDTEIIIISRKIDGVWHVHSMEIRFR	1.34
DEKEEHSKELVRLILRLILTGDEEILEDLMDPNVRANIDGREVHGWHEFVRILEKFLKEWRIHTTSLKRIRIIGDKAEVDLHEVGIVNGKKLEQDFHIHIEFVNGRLKEVHIEIR	1.69
DENEETMRHYFELLVRNLRTGDWHSLTRLMDPHVRLEYNGREFHGMEEVIRFLLHIRLRHLHLERVEIQGDKVRMHVSVDGEVNGRREEWDVELIARKIDGRWIQTSEIYR	0.212
SEEEEQVKELIKWLIEVWLTGNEEFIRDLADPHVRMHIEQGDKKVDSHGRETLLKDLERYRREIRFEYIEIHDIRIYNGRAEVDGRLFGLINGQRMELNVILIFVVVDGKIREIAVHIR	0.26
DEDHKLAEHFIRLLSEKIETGDEDSYKEMVDPNVRIEIGDKEYHGRDEATRVMKEIRERVKNMRIEIHEIHIQGDKVHVRRIDKVGDKEIEKHLIVLKFDGRWVIERERVH	1.19
DETHEMNEEFLRLLIHAWRTGDEDLLLHLADPNVKVNVGEFHHHGREKFSEWLKHIRFDDMRVHDMRIFDGVAHFITESDVTFNGRRRRVHVRIVVEKVNGKWRLKLFEEE	2.66
DEQEKHLKKISEDLLRIWLTGDEDTFREMADPDMRFIDEDHELHGREELIRMMREFWHKFKNARIEIHHVEVIGEYNNVDIRLSVDGRVVDVKLHFLIVNGRLKKVEVRER	2.07
DEKSDIYHQALRLWIDTMVTGDENLYERLLDPHVRVEIGDKEIHGRERVSEFFKRFAEHLGVDHVELHDFRYQGDYVRLRISIEYNGQHLDTDLIITKINGRWYIHSEKYK	1.26
EEESKVASDIIELHMRFLLTGNWEMFLRLADPHVRIETEDHRDHGRDWYEKLFRHIRSHVEDMRIKHVELQGDKLHAHGSVRLLIVDGDKYIEVEVDFRFIFDKVNGKWILSSIHLK	2.29
SEDEDELKEWIRIIIHLLTTGNEDLIENNADPNVRIEFNGKTYHGMEDFHEWMRYAINELRFHDFRLDSFRIVNGKVDLNTTLIGNINGVLTRRETRMIIIKVNGRWLIHALVFK	1.75
SEEEKHWRKVINLLRRWHLTGDEHNLLELFDPNYRLHQGDKEIHGMELYIEIFERELKKVPNLKINFDSKHIEVQGEKARAETELDVNIDGRRIEFETRLYSIKFNGKWFVHSMEVK	0.553
SEEQDWLREALEIFEKTIHTGDEDTSKELADPHVRSIINGKDFVGMEIWTKILEELNKRYDHIELVFHKVENINGRVIIHGTDTIRVDGVERKIDTIIYARKVNGKWLSKSVEMR	1.34
DESTKEARKFKHEFDNDWKTGDEDSLLRLADPHVRTDVNGVENHGREDFVKLLMDIFREMRTEMRTRHVTVFNGRIEVHSTLHLHQGDKVIDLEVLIINRKVNGRWILESMEIK	0.603

Sequence	protease stability score
DEHRELIKEMLERFERSLRTGDEHIQTEMMDPDAKIDINGVELHGRDWASRYIQKYKNVRIEVRTITIQGDKVDIHSTIIIGDKHHSMIIHARKVDGKWVLEEMWVE	0.613
SEEEEVIDEAIHILEKHMQTGDWRVLRELADPNMRVHVNGRDLHGREQYIRWIEFLLKRVPNLKLDHFVLDHQHVVNGVAHLEGRLTYTINGVIHKTRTHFHIFKFDGQWRLESQSER	0.951
SEEEETIRRVAEVLVHSILTGDEHFEENYLDPNARIDVNGKHFIGRERYLEAIRDLNEHLGWELKDVKLREVNVQGDKMHLKMEIKRHVNGKDLFIDMHVNVWKVNGKWLIRSLRYS	1.44
SEKDELLDEILEKLRHDVETGNERLIRKNLDPHVKTDFNGRELHGMDLALRVWREHHEKVKNIRLEIKSVESVDGVVIIHMHVEIDGRHLDVILRWFVVNGRVKSVEIEIK	0.232
SELEEWTERMAKQMLDDVETGDEDRLLKLADPHVRVEFIVDGKIEEVHGREELRKLMERLGIKHFEIKRVSIRVIDGRIHVHNDGHMIIDGKTIPVQLHIHAEKVNGRWRVTDLSIRVG	1.51
SEDEEHARRVLEEMIDARLTGDEDKYETLLDPNVRFHQGEWSFHGMEELSRIVHHEARRIDHHEVRLKELRVVNGRVHSRTLLKLDFNGVEYRLKIELIITKVDGRWLLKEVRVR	1.25
SEIHELAILVLKWLLDSMSTGDEESLRRLLDPHTRIHIDGKDLHGRHFLERILQEIRHEVKEYHIRDVRDINGVVTLDAHVRGNEYFDGRNHEHRTDTRLIIDKINGRWRIRELKFE	1.12
DEEHEWAQRIIEYLSKNEKTGDEDSARELADPNMRFEIDGVEIVGMETWVRRFLELRVEDLTMDVEHIHVQGNFVHIQTRLELHGHINGRRTRYTTTMRLFVLKINGKWIITHVKYE	1.45
SEQEELSKKFFHDLLHAMKTGDESSLYSFLDPNMKHEFDGKVIHGMEEVARIIVEKLERADHHDIRIHDEKMQGDYLVMDVRIIINIDGKEVIKDIKLTWLKIDGRWHVTSVVLH	1.73
DEEERDMKHSSERLLRTWVTGDEDLLRTLADPDARHHLEVDGVHLHLHGMEHFSKWTTDLIEKLGIKHFDMKDLDVQGDKIHVHSTFHYGDKTFEVRLIVVKIDGKWLLSHSSFIVR	0.299
DEEEEESHEATEMILYAHKTGDFDLWEKLADPHVRLDVNGVHVHGREEYVRIMRHIHKNWGVQRFHVEFHDLELQGEKVRVRLRSNFNGRHHTETIIIEKINGRWYLKTRRIT	1.42
DETEEMIKRHMDKLFRAVRTGDWDQFVKLADPNTRIEVGDFHYHGWERFSEFMSELRIHRFRMHDSEVVNGRVHLHTEEDGEVNGKRRESRVHRVLLKIDGRWHLHSVHIE	0.909
SEDQHELTTLLEHLLRIHRTGDFHTLERLMDPNTWTLVDGVWFVGREAVEYSNKLIKFTKRIEIDHFEIQGEKATIHGTYHSHYNGREFHIHVTTYYQKINGRWVLHSIEFR	1.38
SEEDKESEEAFKIAKELLETGDEDLHKHLFDPNARLVVGDKHHHGRELLVKFWSDFGIDHIEIHDIKLVNGRLDTDTTVRFNGRTLKMRIIIIKVNGKWEIKSMTVH	0.667
SDVDEKMETFLTLLFELIYTGDEEVIEKLFDPNVQLDVNGQIYHGMENVIEFVHQVKRHIRWKTVQIRHYRTQGEWAYSQVEVTGTVNGQSHRFEIHIDIWVINGKLKHIKKDIE	2.01
EEELELAKKIADTFNHDMETGDEKSRWDLFDPNVRIDWNGKDLHGWEQEEEELERLGITKVELEIKRKEVQGDKVILDGTVRFNGRSTRVHVHIRVVNGRLKSIKIIIR	0.345
DEDDRHSERMSEYMIKVWMTGDEDAEKRLFDPHARIDVDGQEFIGREELHKISHEHLRKLGFDHFHVRHVELRLIDGKAHLSLDTEVRVGDFKFETSIYNNFEKVNGKWEIRELQVRIR	1.2
SEEEQRKEDFLRWFHKALLTGDEEVLLKMADPNVRADINGVDIHGWKEFRQTTHDLRREIRIRDFEVKDEKLVGDKLHVDSSVDGEFDGRRHELKTHLIFLKVDGKWFFKEIRIK	1.34
SEDERLALKMAEVIMHHLSTGDERILESFFDPNVQFIYGDKTNHGMEETLKFWEHIRIEVKSFTWKHITHVDGRLEMHTRSRELFIYGEFKEDRETRVHIIIDKVDGKWNHHSVRFR	0.06
TEDDRAFELSMRKWLESHRTGDEKTMHELLDPNARYHIGEFHLHGWKEADRLVREIRIHHVEDKHVEIQGDKIRIHTRVDITINGQKSSVELELVLVKVNGVWFVHSVILR	1.8
DEEEELTKRWIDHLLRLWNTGDEHHFLKMADPHVRIEQGDKEHIGREEMYRWLQQFKNIRLHIDDIDIQGDFLNIDGYINFNGVHREAKVHIRVINGKLHSIIIRIK	1.3
DEKEELSKRAFERMLHWLETGDFDKFERYADPNVKTVIGDKYFIGRERVSRTVLHWLEVLGVDHRHVEDSDVHTFENHAVMDLHTRVHVDGQDREIRFILLVTKVNGRWNVTSIKIEIR	0.661
NEREKLVLDLAMRWFEAWLTGDEHLLHLLADPNVRFIYGDKHLIGMDELHRFLREIRIISRDRHFEDKRVIGDKVELDVRLRGEVDFNGRRLDIDLTVHIESHIINGKQHTSRMETI	1.07
SEEDKMVEDWLREWIELHLTGDFEQWESLFDPNTRSRAHVGDKRFESHGREQVVEVRHEIKREMRITDIDDKHIRVFNGRADLIGFMRGDINGRHVRLEIHVILVIVNGKRKEEEVRIH	0.155
SEEEHEIRLAFKQVIETLITGDEHIMTQLLDPNVKIRQGDKILHGREEAHKWADEWLRRVDHFEDMKIHRHSVFNGRLELDSEQVVIQGDKTISIRSEIILTKINGRWQIEELRFD	1.43
